From paper PMC3364216, “The RuvA Homologues from Mycoplasma genitalium and Mycoplasma pneumoniae Exhibit Unique Functional Characteristics”

Target: RuvAMge;RecUMge (Mycoplasma genitalium G37 (ATCC …, UniProt Q49424;Q49422 1-205;1-166, |))
Assay: EMSA; 0.5 uM RecUMge preincubated, then RuvAMge; all RecU-HJ complexes shifted at 4 uM; 20 mM Tris-HCl pH 7.5, 1 mM DTT, 1 mM EDTA, 12.3 nM DNA, 10 ul, on ice 10 min; 8% PAGE in 0.5x TBE; +/- 10 mM Mg2+

B1: HJ 1.1 (structured_DNA)
DNA 1: GCGACGTGATCACCAGATGATTGCTAGGCATGCTTTCCGCAAGAGAAGC
DNA 2: GGCTTCTCTTGCGGAAAGCATGCCTAGCAATCCTGTCAGCTGCATGGAAC
DNA 3: GGTTCCATGCAGCTGACAGGATTGCTAGGCTCAAGGCGAACTGCTAACGG
DNA 4: ACCGTTAGCAGTTCGCCTTGAGCCTAGCAATCATCTGGTGATCACGTCGC
binding result: binds
